Laboratory results reported in US20200270125A1 (OMEROS, published 2020).

T1: human MASP-3 (construct not stated) (human)
T1 construct: also called MASP-3 antigen
T1 chain: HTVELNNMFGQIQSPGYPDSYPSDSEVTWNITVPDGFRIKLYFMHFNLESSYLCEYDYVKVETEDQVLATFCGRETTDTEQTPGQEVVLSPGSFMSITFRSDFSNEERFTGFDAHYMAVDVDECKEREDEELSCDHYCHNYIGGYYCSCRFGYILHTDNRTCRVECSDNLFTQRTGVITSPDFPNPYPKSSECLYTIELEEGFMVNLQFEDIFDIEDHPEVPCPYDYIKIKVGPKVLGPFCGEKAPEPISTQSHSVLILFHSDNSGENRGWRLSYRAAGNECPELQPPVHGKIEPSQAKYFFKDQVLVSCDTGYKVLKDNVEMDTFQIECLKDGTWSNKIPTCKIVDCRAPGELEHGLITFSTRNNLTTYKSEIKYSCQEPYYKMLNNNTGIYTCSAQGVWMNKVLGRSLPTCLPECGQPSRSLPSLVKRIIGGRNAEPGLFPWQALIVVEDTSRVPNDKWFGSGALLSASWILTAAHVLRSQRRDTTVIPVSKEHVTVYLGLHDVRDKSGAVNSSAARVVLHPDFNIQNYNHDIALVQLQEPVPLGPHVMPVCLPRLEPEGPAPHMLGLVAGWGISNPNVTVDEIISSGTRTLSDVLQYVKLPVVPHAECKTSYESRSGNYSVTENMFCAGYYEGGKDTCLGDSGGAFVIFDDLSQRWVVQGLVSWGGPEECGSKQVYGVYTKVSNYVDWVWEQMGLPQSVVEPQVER

T2: recombinant full-length mouse MASP-3 (mouse)
T2 construct: Entry is with leader; also called mouse full length MASP-3
T2 chain: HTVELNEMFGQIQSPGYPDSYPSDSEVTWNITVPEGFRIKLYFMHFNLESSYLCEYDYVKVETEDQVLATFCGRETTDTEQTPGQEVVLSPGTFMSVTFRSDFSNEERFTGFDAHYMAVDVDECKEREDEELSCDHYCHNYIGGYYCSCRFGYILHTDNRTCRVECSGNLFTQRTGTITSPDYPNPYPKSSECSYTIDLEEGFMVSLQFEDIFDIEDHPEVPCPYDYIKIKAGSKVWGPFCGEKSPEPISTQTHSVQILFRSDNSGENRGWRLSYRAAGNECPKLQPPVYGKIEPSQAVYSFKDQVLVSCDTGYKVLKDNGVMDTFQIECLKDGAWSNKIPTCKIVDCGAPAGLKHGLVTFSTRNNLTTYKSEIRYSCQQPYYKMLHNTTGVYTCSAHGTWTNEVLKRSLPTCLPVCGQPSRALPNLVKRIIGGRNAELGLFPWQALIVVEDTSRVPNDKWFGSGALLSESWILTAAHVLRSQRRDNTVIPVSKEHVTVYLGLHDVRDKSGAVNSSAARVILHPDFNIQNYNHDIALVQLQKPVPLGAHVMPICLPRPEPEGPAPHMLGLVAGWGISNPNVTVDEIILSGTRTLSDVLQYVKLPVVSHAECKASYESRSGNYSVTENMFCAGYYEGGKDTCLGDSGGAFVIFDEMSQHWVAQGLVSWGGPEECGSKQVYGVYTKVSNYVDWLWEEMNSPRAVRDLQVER

T3: human MASP-3 CCP1-CCP2-SP fragment (human)
T3 construct: limits of the assay construct are not restated; also called rMASP-3 (CCP1-CCP2-SP)
T3 chain: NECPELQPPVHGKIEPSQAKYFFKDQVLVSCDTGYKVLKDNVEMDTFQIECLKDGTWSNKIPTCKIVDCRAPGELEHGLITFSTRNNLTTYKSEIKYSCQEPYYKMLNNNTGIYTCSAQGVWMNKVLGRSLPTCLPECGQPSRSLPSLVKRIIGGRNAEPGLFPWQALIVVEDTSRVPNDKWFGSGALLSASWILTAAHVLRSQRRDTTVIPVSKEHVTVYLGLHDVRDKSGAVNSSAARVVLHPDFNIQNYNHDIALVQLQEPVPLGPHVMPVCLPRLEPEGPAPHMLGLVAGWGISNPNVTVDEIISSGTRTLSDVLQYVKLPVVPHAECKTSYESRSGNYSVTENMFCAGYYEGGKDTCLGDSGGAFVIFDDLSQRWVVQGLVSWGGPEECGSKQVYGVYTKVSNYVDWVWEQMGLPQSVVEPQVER

T4: recombinant human MASP-1A (S646A, CCP1-CCP2-SP fragment) (human, UniProt P48740 298-699, limits assumed)
T4 chain: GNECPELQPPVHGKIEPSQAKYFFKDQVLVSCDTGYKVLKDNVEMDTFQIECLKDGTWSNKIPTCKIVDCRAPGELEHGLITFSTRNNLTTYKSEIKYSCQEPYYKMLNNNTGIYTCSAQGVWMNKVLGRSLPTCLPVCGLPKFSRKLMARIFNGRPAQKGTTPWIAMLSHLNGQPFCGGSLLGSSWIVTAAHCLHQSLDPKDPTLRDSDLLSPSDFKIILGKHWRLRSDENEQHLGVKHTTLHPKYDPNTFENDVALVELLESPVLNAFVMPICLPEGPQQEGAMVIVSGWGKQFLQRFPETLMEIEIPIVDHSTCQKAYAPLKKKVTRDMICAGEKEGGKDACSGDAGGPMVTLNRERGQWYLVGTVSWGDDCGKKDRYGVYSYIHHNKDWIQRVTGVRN


How the values were obtained:
[1] = target: T1, human MASP-3 (construct not stated); assay: ELISA, monovalent Fab
[2] = target: T2, recombinant full-length mouse MASP-3; assay: sandwich ELISA, full-length mouse MASP-3 captured by αM3-259
Method: (§1) The plate was then washed (PBS-T, 0.05%) and the candidate MASP-3 antibodies were added followed by incubation for one hour at room temperature. The plate was washed (PBS-T, 0.05%) and a detection antibody was added (mouse anti-human kappa-HRP, SouthernBiotech #9230-05) for one hour at room temperature. After another wash (PBS-T, 0.05%) the plate was developed (5 minutes) with OPT EIA TMB (BD Biosciences #555214). Absorbance reading at A450 was measured using the Spectramax M5e plate reader.

[3] = target: T3, human MASP-3 CCP1-CCP2-SP fragment; assay: sandwich ELISA, MASP-3 CCP1-CCP2-SP captured by αM3-259
Method: as §1

[4] = target: T5, recombinant human MASP-2 (CCP1-CCP2-SP fragment) (human, UniProt O00187 298-686, limits assumed); assay: ELISA: recombinant MASP-2 (CCP1-CCP2-SP) coated directly on the plate, A450
T5 construct: domain: CCP1-CCP2-SP fragment
Method: as §1

[5] = target: T1, human MASP-3 (construct not stated); assay: not described at this place
[6] = target: T4, recombinant human MASP-1A (S646A, …); assay: ELISA: recombinant MASP-1A (S646A, CCP1-CCP2-SP) coated directly on the plate, A450
Method: as §1

T5 sequence (O00187 298-686 limits assumed): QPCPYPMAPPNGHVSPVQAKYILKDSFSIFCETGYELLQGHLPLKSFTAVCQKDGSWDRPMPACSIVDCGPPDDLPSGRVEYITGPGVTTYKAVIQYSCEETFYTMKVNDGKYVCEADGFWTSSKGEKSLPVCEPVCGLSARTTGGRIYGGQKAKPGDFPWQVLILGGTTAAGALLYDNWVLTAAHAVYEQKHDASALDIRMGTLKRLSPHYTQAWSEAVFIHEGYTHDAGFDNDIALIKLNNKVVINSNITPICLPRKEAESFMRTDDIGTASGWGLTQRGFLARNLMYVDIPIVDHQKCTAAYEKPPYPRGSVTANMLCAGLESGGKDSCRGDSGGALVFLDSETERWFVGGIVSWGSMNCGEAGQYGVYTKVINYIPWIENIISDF

Binder | EC50 [1] [nM] | EC50 [2] [nM] | EC50 [3] [nM] | binding affinity [5] [pM] | binding result [4] | binding result [6]
h4D5-19-1-ST Fab (VH-19 and VL-1-ST) (Fab, V domains shown, also called 4D5-ST mutant) VH: QVQLVQSGAEVKKPGASVKVSCKASGYTFTTDDINWVRQAPGQGLEWIGWIYPRDDRTKYNDKFKDRATLTVDTSSNTAYMELSSLRSEDTAVYYCSSLEDTYWGQGTLVTVSS VL: DIVMTQSPDSLAVSLGERATINCKSSQSLLNTRTRKNYLAWYQQKPGQPPKLLIYWASTRESGVPDRFSGSGSGTDFTLTISSLQAEDVAVYYCKQSYNLYTFGQGTKVEIKR | 0.151 | – | – | – | – | –
h4D5-19-1-NQ Fab (VH-19 and VL-1-NQ) (Fab, V domains shown, also called 4D5-NQ mutant) VH: QVQLVQSGAEVKKPGASVKVSCKASGYTFTTDDINWVRQAPGQGLEWIGWIYPRDDRTKYNDKFKDRATLTVDTSSNTAYMELSSLRSEDTAVYYCSSLEDTYWGQGTLVTVSS VL: DIVMTQSPDSLAVSLGERATINCKSSQSLLQSRTRKNYLAWYQQKPGQPPKLLIYWASTRESGVPDRFSGSGSGTDFTLTISSLQAEDVAVYYCKQSYNLYTFGQGTKVEIKR | 0.732 | – | – | – | – | –
MASP-3 mAb 11B6 (mouse-human chimeric IgG4) (antibody, V domains shown) VH: QVQLKQSGAELVKPGASVKMSCKASGYTFTTYPIEWMKQNHGKSLEWIGNFHPYNGDSKYNEKFKGKATLTVEKSSSTVYLELSRLPSADSAIYYCARRHYAASPWFAHWGQGTLVTVSS VL: DIVMTQSQKFMSTSVGDRVNVTCKASQNVGPTVAWYQQKPGQSPKALIYSASYRYSGVPDRFTGSGSGTDFTLTISNVHSEDLAEYFCQQYNSYPFTFGSGTKLEIKR | – | 0.066 | 0.06 | ≤ 500 | no binding (tested: about 20 nM (log10 about 1.3)) | no binding (tested: about 20 nM (log10 about 1.3))
MASP-3 mAb 1B11 (mouse-human chimeric IgG4) (antibody, V domains shown) VH: QVQLKQSGAELVRPGASVKLSCKASGYTFTDYYINWVKQRPGQGLEWIARIYPGSGNTYYNEKFKGKATLTAEKSSSTAYMQLSSLTSEDSAVYFCARNYYISSPWFAYWGQGTLVTVSS VL: DIVMTQSQKFMSTSVGDRVSVTCKASQNVGPNVAWYQQKPGQSPKALIYSASYRYSGVPDRFTGSGSGTDFTLTISNVQSEDLADYFCQQYNRYPLTFGAGTKLELKR | – | 1.1 | 0.059 | ≤ 500 | no binding (tested: about 20 nM (log10 about 1.3)) | no binding (tested: about 20 nM (log10 about 1.3))
MASP-3 mAb 15D9 (mouse-human chimeric IgG4) (antibody, V domains shown) VH: QVQLKQSGTELMKPGASVNLSCKASGYTFTAYWIEWVKQRPGHGLEWIGEILPGSGTTNYNENFKDRATFTADTSSNTAYMQLSSLTSEDSAIYYCARSYYYASRWFAFWGQGTLVTVSS VL: DIVMTQSQKFMSTSIGDRVSVTCRASQNVGPNLAWYQQKPGQSPKALIYSASYRFSGVPDRFTGSGSGTDFTLTISNVQSEDLAEYFCQQYNRYPFTFGSGTKLEIKR | – | 0.092 | 0.074 | ≤ 500 | no binding (tested: about 20 nM (log10 about 1.3)) | no binding (tested: about 20 nM (log10 about 1.3))
MASP-3 mAb 35C1 (mouse-human chimeric IgG4) (antibody, V domains shown) VH: QIQLVQSGPELKTPGETVKISCKASGYIFTSYGITWVKQAPGKGLKWMGWINTYSGVPTYADDFKGRFAFSLETSASTAYLQINNLKNEDTTTYFCTRGGDALDYWGQGTSVTVSS VL: not shown | – | 0.209 | 0.091 | ≤ 500 | no binding (tested: about 20 nM (log10 about 1.3)) | no binding (tested: about 20 nM (log10 about 1.3))
MASP-3 mAb 1E7 (mouse-human chimeric IgG4) (antibody, V domains shown) VH: QVQLKQSGPELARPWASVKISCQAFYTFSRRVHFAIRDTNYWMQWVKQRPGQGLEWIGAIYPGNGDTSYNQKFKGKATLTADKSSSTAYMQLSSLTSEDSAVYYCASGSHYFDYWGQGTTLTVSS VL: DIQLTQSPAILSVSPGERVSFSCRASQSIGTSIHWYQQRTNGSPRLLIKYASESISGIPSRFSGSGSGTDFTLSINSVESEDIADYYCQQSNSWPYTFGGGTKLEIKR | – | 117 | 0.112 | ≤ 500 | – | –

More lines, main results first:

EC50 [1] [nM] | EC50 [2] [nM] | EC50 [3] [nM] | binding affinity [5] [pM] | Binder | binding result [4] | binding result [6]
0.122 | – | – | – | h4D5-19-1-NA Fab (VH-19 and VL-1-NA) (Fab, V domains shown, Humanized monovalent Fab; also called 4D5-NA mutant) VH: QVQLVQSGAEVKKPGASVKVSCKASGYTFTTDDINWVRQAPGQGLEWIGWIYPRDDRTKYNDKFKDRATLTVDTSSNTAYMELSSLRSEDTAVYYCSSLEDTYWGQGTLVTVSS VL: DIVMTQSPDSLAVSLGERATINCKSSQSLLASRTRKNYLAWYQQKPGQPPKLLIYWASTRESGVPDRFSGSGSGTDFTLTISSLQAEDVAVYYCKQSYNLYTFGQGTKVEIKR | – | –
0.294 | – | – | – | h10D12-45-21-DA Fab (VH-45 and VL-21-DA) (Fab, V domains shown, also called 10D12-DA mutant) VH: QIQLVQSGSELKKPGASVKVSCKASGYIFTSYGMSWVRQAPGKGLKWMGWINTYSGVPTYADDFKGRFVFSLDTSVRTPYLQISSLKAEDTAVYFCARGGEAMDYWGQGTLVTVSS VL: DVLMTQTPLSLSVTPGQPASISCKSSQSLLDSAGKTYLNWLLQRPGQSPKRLIYLVSKLDSGVPDRFSGSGSGTDFTLKISRVEAEDVGVYYCWQGTHFPWTFGQGTKVEIKR | – | –
– | 0.064 | 0.069 | ≤ 500 | MASP-3 mAb 49C11 (mouse-human chimeric IgG4) (antibody, V domains shown) VH: EVQLQQSGPVLVKPGASGKMSCKASGYKFTDYYMIWVKQSHGKSLEWIGVIKIYNGGTSYNQKFKGKATLTVDKSSSTAYMELNSLTSEDSAVYYCARGPSLYDYDPYWYFDVWGTGTTVTVSS VL: DVLMTQTPLSLPVSLGDQASFSCRSSQSLIHSNGNTYLHWYLQKPGQSPKLLIYKVSNRFSGVPDRFSGSGSGTDFTLKISRVEAEDLGVYFCSQSTHVPWTFGGGTKLEIKR | no binding (tested: about 20 nM (log10 about 1.3)) | no binding (tested: about 20 nM (log10 about 1.3))
